Consider 4 substances from publication PMC9795577.

Test [1] deals with FLAG-tagged yeast PEX13 with two cysteines in the YG domain (positions 104 and 131) (S. cerevisiae) (UniProt P80667). Description: cross-linking; disulfide cross-linking of introduced cysteines in intact yeast membranes: 0, 50 or 200 μM Aldrithiol-4, 30 min at 30 °C, 20 mM HEPES-NaOH pH 7.2, 50 mM NaCl, 250 mM sucrose, 1 mM EDTA; quenched with NEM, solubilised in 0.5 % DDM, anti-FLAG IP, non-reducing or reducing SDS-PAGE, blot; also with DDM added before the oxidant, and in strains lacking PEX2, PEX5, PEX14 or PEX17.

For test [2], the target named is FLAG-tagged yeast PEX13 with two cysteines (104 and 131) and all tyrosines of the YG domain converted into serines (UniProt P80667). Description: disulfide crosslinking in intact membranes, FLAG IP and immunoblot quantification. Particulars: nonreducing SDS-PAGE, read off a plot. (A western blot detects proteins with antibodies after separation by electrophoresis.)

The target of test [3] is FLAG-tagged yeast PEX13 with a single cysteine at residue 131 in the YG domain (S. cerevisiae) (UniProt P80667). Description: cross-linking; disulfide cross-linking of introduced cysteines in intact yeast membranes: 0, 50 or 200 μM Aldrithiol-4, 30 min at 30 °C, 20 mM HEPES-NaOH pH 7.2, 50 mM NaCl, 250 mM sucrose, 1 mM EDTA; quenched with NEM, solubilised in 0.5 % DDM, anti-FLAG IP, non-reducing or reducing SDS-PAGE, blot; also with DDM added before the oxidant, and in strains lacking PEX2, PEX5, PEX14 or PEX17.

The target in test [4] is FLAG-tagged yeast PEX13 with a single cysteine at residue 104 in the YG domain (S. cerevisiae) (UniProt P80667). Described as above.

Bounds are passed on as bounds.

Chain of FLAG-tagged yeast PEX13 with two cysteines (104 and 131) and all tyrosines of the YG domain converted into serines (P80667 other isoform, or with tags, fused parts or gaps): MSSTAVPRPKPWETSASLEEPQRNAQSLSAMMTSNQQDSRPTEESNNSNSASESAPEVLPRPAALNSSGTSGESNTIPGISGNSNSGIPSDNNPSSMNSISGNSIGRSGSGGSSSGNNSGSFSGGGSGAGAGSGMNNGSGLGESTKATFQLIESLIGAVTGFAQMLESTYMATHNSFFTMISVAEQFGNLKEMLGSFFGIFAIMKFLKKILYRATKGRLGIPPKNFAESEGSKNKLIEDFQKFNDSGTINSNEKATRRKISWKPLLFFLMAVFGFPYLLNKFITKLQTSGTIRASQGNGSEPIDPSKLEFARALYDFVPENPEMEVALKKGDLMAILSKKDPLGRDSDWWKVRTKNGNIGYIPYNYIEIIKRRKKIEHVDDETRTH
Chain of FLAG-tagged yeast PEX13 with a single cysteine at residue 131 in the YG domain (P80667 whole entry, the tested form may be a part): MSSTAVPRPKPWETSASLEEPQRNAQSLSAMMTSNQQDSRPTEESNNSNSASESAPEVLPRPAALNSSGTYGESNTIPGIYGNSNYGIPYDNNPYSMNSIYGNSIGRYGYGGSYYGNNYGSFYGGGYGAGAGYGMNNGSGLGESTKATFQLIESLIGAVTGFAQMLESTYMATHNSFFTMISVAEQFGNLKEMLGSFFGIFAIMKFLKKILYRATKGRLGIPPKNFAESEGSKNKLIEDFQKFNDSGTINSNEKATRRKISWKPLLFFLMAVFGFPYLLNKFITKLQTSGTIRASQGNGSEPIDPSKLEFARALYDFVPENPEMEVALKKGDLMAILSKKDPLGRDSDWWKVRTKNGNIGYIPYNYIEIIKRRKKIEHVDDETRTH
Chain of FLAG-tagged yeast PEX13 with a single cysteine at residue 104 in the YG domain (P80667 whole entry, the tested form may be a part): as above
Chain of FLAG-tagged yeast PEX13 with two cysteines in the YG domain (positions 104 and 131) (P80667 whole entry, the tested form may be a part): as above

On to “FLAG-tagged yeast PEX13 with two cysteines in the YG domain (positions 104 and 131) (from UniProt P80667 1-386) (natural protein)”, for which the stoichiometry N (commonly the number of molecules, sites or subunits per partner or assembly) in test [1] is more than 8.

Consider “FLAG-tagged yeast PEX13 with two cysteines in the YG domain (positions 104 and 131) (from UniProt P80667) Y71S; Y81S; Y86S; Y90S; Y95S; Y101S; Y108S; Y110S; Y114S; Y115S; Y119S; Y123S; Y127S; Y133S”, for which the other: fraction crosslinked in test [2] (lane 4 (parent lane 1), lowest point of oxidant series, 0 µM Aldrithiol-4, parent: est. 0.10) worked out at 0.06; in test [2] (lane 5 (parent lane 2), middle point of oxidant series, 50 µM Aldrithiol-4, parent: est. 0.67), 0.1; in test [2] (lane 6 (parent lane 3), highest point of oxidant series, 200 µM Aldrithiol-4, parent: est. 0.70), 0.18.

Regarding “FLAG-tagged yeast PEX13 with a single cysteine at residue 131 in the YG domain (from UniProt P80667 1-386) (natural protein)”, the percent disulfide-linked dimers in test [3] was more than 70%.

In test [4], “FLAG-tagged yeast PEX13 with a single cysteine at residue 104 in the YG domain (from UniProt P80667 1-386) (natural protein)” displayed a percent disulfide-linked dimers of more than 70%.
